Data from publication PMC5320943 (Structure (London, England : 1993), 2016).

Legend:
[1] = target: T1, wild-type intermedilysin (ILY^wt) (Streptococcus intermedius, UniProt Q9LCB8 34-532); assay: MST
T1 sequence: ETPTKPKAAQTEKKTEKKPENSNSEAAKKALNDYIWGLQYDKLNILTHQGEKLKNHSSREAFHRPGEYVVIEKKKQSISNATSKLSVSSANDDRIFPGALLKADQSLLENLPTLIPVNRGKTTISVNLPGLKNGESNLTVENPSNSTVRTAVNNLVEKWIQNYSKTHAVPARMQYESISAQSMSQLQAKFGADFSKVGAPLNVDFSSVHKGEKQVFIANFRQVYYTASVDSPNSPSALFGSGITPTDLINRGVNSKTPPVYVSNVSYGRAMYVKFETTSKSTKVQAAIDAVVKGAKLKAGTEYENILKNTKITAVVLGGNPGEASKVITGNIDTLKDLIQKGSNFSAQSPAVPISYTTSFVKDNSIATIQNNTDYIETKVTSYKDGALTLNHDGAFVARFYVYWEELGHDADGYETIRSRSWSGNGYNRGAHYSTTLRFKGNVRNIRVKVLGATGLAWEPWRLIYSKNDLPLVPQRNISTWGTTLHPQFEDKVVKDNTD

[2] = target: wild-type vaginolysin (VLY^wt) (Gardnerella vaginalis, UniProt B2YGA4 31-516); assay: MST

B1: CD59 mutant D22A (CD59^D22A) (receptor, human)
chain: LQCYNCPNPTADCKTAVNCSSAFDACLITKAGLQVYNKCWKFEHCNFNDVTTRLRENELTYYCCKKDLCNFNEQLEN
modifications: Dylight 650 label (in the microscale thermophoresis only)
For B1, which Kd [1] is on record?
The Kd was 367 nM.

What about the Kd [2] of the same binder?
Its Kd is 779 nM.
